B1: HapX^161-491 (A. fumigatus HapX C-terminus with all four cysteine-rich regions) (domain or fragment, UniProt Q4WER3 161-491, looked up)
chain: KGLAPLTTSTPQARSSDRPDNGDASNNDSGEGREEVPLGCNDCSTSHCQCIEDAFTMPGVVAQEQSRRLDTTKPGLSEPQIKPDPEEMEIDFTSRFAATQQQDQSPTSVSSPAVDPCGFCSDGTPCICAEMAAQEEQRPRRNSFENNRLAPIQNLSQFTPPPSDGDVRSDVTLPPISQATNPCANGPGTCAQCLADPRRTLFCKTLAASRSPSAAPSGCCGGKGADGGCCQSRNTNVSRGRSGSNNNTSSGSSAAPSLTLSCADAYTTLSRHPNFSRATDELSTWLPKLHTLPKPRDFPLTDRGVPRAALEVEAASVMGVLRYFDRRFADK
notes: HapX of Aspergillus fumigatus (Afu5g03920), amino acids 161-491 (cysteine-rich C-terminus), from a synthetic gene; also called AfuHapX^161-491; pnCS-HapX161-491; source: E. coli BL21(DE3), untagged, bicistronically co-expressed with GrxD-His6; in crude cell extract, then co-purified (Ni-Sepharose, SEC)

Assay [1] concerns the target T1, GrxD (recombinant full-length GrxD after removal of the His-tag by TEV protease) (A. fumigatus, UniProt Q4X024 1-271).
T1 construct: GrxD of Aspergillus fumigatus (Afu2g14960), full length, from a synthetic gene; Residues of the TEV site may be left at the C-terminus after cleavage (surmise); source: E. coli BL21(DE3), co-expressed with HapX^161-491, purified (Ni-Sepharose, TEV protease, Superdex 200 SEC); not shown: His6, C-terminal, cleaved
T1 sequence (looked up): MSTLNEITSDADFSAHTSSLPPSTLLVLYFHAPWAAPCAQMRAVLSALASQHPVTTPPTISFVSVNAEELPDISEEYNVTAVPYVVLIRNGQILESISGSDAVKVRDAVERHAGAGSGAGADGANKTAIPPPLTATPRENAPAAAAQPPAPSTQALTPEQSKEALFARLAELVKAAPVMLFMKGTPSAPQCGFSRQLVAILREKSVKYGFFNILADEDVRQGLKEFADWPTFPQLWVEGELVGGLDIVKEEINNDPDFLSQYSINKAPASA
Kind of assay: SEC; Ni-chelate eluate digested with TEV protease and loaded on Superdex 200 prep grade 26/60 in 25 mM HEPES pH 7.5, 150 mM NaCl, 2 mM glutathione; apparent masses from protein calibration standards; fractions checked by SDS-PAGE. Conditions: both partners purified. (In general: In gel filtration, larger molecules generally elute earlier.)

Assay [2] deals with B1. The description is as above. The note with it: both partners purified.

The term stoichiometry N denotes the number of molecules, sites or subunits per partner or assembly.

With B1, in assay [1], the “stoichiometry N” value was ~1 HapX^161-491 per GrxD (2:2).

B2: GrxD^C191A (recombinant GrxD with cysteine 191 mutated to alanine) (natural protein)
chain: MSTLNEITSDADFSAHTSSLPPSTLLVLYFHAPWAAPCAQMRAVLSALASQHPVTTPPTISFVSVNAEELPDISEEYNVTAVPYVVLIRNGQILESISGSDAVKVRDAVERHAGAGSGAGADGANKTAIPPPLTATPRENAPAAAAQPPAPSTQALTPEQSKEALFARLAELVKAAPVMLFMKGTPSAPQAGFSRQLVAILREKSVKYGFFNILADEDVRQGLKEFADWPTFPQLWVEGELVGGLDIVKEEINNDPDFLSQYSINKAPASA
notes: GrxD of Aspergillus fumigatus (Afu2g14960), full length, C191 of the CGFS motif mutated to A; source: E. coli BL21(DE3), co-produced with HapX^161-491, purified (Ni-chelate, TEV protease, SEC); not shown: His6, C-terminal, cleaved
As for B2, the binding result in assay [2] is “binds”.

Values taken from article PMC6762210, “The monothiol glutaredoxin GrxD is essential for sensing iron starvation in Aspergillus fumigatus” (PLoS Genetics, 2019).
